Series [1] addresses T1, PrCpf1 (Pseudobutyrivibrio ruminis).
T1 chain: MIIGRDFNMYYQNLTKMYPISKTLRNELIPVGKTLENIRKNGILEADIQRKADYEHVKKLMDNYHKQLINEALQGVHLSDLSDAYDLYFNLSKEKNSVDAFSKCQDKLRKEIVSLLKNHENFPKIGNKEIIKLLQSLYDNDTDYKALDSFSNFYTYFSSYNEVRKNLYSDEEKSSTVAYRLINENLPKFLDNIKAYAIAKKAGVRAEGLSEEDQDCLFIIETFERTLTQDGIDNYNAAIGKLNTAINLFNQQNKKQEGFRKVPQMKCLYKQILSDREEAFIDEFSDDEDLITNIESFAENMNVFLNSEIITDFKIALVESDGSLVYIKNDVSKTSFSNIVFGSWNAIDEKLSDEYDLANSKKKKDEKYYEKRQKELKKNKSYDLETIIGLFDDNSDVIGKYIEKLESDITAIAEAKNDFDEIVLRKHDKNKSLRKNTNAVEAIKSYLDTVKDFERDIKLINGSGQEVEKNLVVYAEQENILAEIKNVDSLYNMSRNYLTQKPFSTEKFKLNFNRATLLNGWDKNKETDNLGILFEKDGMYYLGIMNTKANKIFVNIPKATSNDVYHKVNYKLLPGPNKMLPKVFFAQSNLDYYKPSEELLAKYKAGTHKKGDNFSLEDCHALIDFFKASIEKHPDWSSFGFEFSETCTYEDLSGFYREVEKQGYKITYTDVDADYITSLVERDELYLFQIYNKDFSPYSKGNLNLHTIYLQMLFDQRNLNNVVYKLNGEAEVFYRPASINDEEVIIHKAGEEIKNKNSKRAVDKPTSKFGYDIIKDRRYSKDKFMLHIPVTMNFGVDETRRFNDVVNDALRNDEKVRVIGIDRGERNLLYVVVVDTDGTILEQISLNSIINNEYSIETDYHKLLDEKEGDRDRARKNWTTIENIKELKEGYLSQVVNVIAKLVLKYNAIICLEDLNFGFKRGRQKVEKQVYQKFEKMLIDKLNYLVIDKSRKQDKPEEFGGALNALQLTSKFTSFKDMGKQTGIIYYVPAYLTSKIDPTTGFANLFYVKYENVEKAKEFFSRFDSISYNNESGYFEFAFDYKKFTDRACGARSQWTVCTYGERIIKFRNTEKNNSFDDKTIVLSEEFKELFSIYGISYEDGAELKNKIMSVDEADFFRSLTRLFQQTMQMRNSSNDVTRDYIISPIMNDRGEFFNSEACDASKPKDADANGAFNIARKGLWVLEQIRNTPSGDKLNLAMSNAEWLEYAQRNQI
Description: cell_activity; PAM TTTC; (T)TTN; T7EI. The settings on record: tags: HA (2A-eGFP vector). The method, then:
(§1) GFP-positive cells were sorted by FACS, lysed with Buffer L+ 1/100V Protease K (Biotool) at 55° C. for 30 min, inactivated at 95° C. for 5 min, and directly used for PCR detection. Appropriate primers were designed near the Cpf1 targeting site, and the amplified product was purified using DNA Clean & Concentrator™-5 kit (ZYMO Research). 200 ng of purified PCR product was added into 1 uL of NEBuffer2 (NEB) and diluted to 10 uL with ddH₂O. Then, heterodimers were formed by re-annealing according to the previously reported method (Li, W., et al., Simultaneous generation and germline transmission of multiple gene mutations in rat using CRISPR-Cas systems. Nat Biotechnol, 2013. 31(8): p. 684-6). The reannealed product was added with 0.3 uL of T7EI endnucelease and 1/10 V NEBuffer2 (NEB), and digested at 37° C. for 1 h 30 min. Genotype analysis was performed by 3% TAE-Gel electrophoresis. Indels were calculated according to the method reported in the previous article (Cong, L., et al., Multiplex genome engineering using CRISPR/Cas systems. Science, 2013. 339(6121): p. 819-23).
(§2) The cells were transfected with Cpf1, crRNA31, and crRNA2 plasmids, and it was confirmed by PCR and T7EI analysis that crRNA31 can increase the editing efficiency of five Cpf1s of ArCpf1, BsCpf1, HkCpf1, PrCpf1, and PxCpf1 at the site MeCP2-4 by two folds (FIG. 13B).

Series [2] concerns the target T2, PxCpf1 (Pseudobutyrivibrio xylanivorans).
T2 chain: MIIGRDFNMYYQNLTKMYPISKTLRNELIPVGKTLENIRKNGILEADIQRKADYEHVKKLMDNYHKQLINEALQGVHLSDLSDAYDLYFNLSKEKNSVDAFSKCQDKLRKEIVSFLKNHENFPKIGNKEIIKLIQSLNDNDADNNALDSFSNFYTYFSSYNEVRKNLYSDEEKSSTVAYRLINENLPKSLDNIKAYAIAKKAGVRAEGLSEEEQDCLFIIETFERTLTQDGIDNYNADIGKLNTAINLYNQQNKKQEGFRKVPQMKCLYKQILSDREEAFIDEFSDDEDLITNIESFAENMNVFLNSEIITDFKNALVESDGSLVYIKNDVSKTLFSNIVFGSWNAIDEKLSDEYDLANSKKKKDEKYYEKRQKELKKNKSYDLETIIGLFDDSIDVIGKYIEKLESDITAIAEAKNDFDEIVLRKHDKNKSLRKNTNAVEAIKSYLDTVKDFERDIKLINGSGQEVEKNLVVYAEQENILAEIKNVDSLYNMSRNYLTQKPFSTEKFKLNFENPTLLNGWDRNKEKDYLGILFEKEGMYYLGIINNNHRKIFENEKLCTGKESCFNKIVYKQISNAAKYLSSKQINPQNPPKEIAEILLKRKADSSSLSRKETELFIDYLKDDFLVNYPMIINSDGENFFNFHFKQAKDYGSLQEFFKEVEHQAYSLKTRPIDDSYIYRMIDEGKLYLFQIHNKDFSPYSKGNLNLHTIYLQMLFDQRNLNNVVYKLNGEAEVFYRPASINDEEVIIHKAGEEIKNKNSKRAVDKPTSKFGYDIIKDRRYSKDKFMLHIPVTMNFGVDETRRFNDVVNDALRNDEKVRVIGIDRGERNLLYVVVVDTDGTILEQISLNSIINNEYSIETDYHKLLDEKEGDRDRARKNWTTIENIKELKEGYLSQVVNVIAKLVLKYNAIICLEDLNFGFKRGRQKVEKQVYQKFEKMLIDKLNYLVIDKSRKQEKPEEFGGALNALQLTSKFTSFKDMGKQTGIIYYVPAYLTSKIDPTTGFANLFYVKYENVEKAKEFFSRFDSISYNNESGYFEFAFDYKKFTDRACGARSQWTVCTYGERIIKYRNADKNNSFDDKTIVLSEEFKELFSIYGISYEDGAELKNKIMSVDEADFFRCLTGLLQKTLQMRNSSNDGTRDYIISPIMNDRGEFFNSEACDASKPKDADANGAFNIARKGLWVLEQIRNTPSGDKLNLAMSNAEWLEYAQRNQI
The series is described as follows: cell_activity; PAM TTTC; (T)TTN; T7EI. The note with it: tags: HA (2A-eGFP vector). As to the method:
as §1, §2

Editing efficiency data for one molecule are collected here from patent US20200149021, “SYSTEM AND METHOD FOR GENOME EDITING” (INSTITUTE OF ZOOLOGY, CHINESE ACADEMY OF SCIENCES, published 2020).

B1: crRNA31 MeCP2 site 4 ; Mouse MeCP2 site 4 (ssRNA ; dsDNA)
RNA: AUUUCUACUAUGGUAGAUGUGUCCAACCUUCAGGCAAGGUG
DNA 1: TTTCGTGTCCAACCTTCAGGCAAGGTG
DNA 2: CACCTTGCCTGAAGGTTGGACACGAAA
Consider B1, for which the editing efficiency in series [1] and in series [2] was about 2 fold vs crRNA2 in each case.
